Reference: patent US9018138

Experiments:
integrins = experiment: cell-based or functional assay
[1] = target: coxsackievirus-adenovirus receptor (CAR) on 293, PC-3 and PC3-CAR cells (UniProt P78310); experiment: cell-based or functional assay

| Substance | infection relative to wild type fiber virus (integrins) | infection of 293 cells after anti-CAR siRNA knock-down (GFP) [1] | infection of PC3-CAR against PC-3 cells (GFP fluorescence intensity, MOI 100) [1] |
| --- | --- | --- | --- |
| CAR ablated and RGD4C re-targeted Fiber (ΔTAYT-RGD), displayed on the capsid of virus AdTrack-RGD4C-2 (from UniProt P11818 1-542; P11818 543-581) | 5% |  |  |
| wild type Adenovirus Serotype 5 (Ad5) Fiber, displayed on the capsid of virus AdTrack-WTFib (from UniProt P11818 1-581) |  | > 50% | 26 fold |
